A short description of this data set: yeast display, Sf9 membrane polyspecificity reagent, FACS + sequencing; frameworks hold sequencing errors. An outline of the steps: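 After 36–48 hours of galactose induction, yeast (Saccharomyces cerevisiae BJ5465) displaying a synthetic nanobody library were stained at 4 °C for 1 hour with 10% biotinylated, detergent-solubilized Sf9 membrane reagent. Streptavidin microbeads enriched the stained cells before FACS sorting into low and high (top ~1%) gates on anti-HA and streptavidin fluorescence. Each clone's polyreactivity label reflects its gate of origin.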
For the sequence “QVQLVESGGGLVQAGGSLRLSCAASGITFYSNAMGWYRQAPGKERELVARISSSGGSTYYADSVKGRFTISRDNAKNTVYLQMNSLKPEDTAVYYCAARRLWVRGYNYWGQGTQVTVSS”, the “polyreactivity (PSR sort gate)” value is on record as “high polyreactivity”. For the sequence “QVQLVESGGGLVQAGGSLRLSCAASGITFYSYAMGWYRQAPGKEMELVAAITRSGGSTYYADSVKGRFTISRDNAKNTVYLQMISLKPEDTAVYYCAAEEGRVFSGGYEYWGQGTQVTVSS”, the “polyreactivity (PSR sort gate)” value is “high polyreactivity”. As to “QVQLVESGGGLVQAGGSLRLSCAASGITFYSYAMGWYRQAPGKERELVAAISSSGTTYYADSVKGRFTISRDNAKNTVYLQMNSLKPEDTAVYYCAVDSYYKYDYWGQGTQVTVSS”, the “polyreactivity (PSR sort gate)” value is listed as “low polyreactivity”.

Consider “QVQLVESGGGLVQAGGSLRLSCAASGITFYSYAMGWYRQAPGKERELVAAISTTVGSTYYADSVKGRFTISRDNAKNTVYLQMNSLKPEDTAVYYCNAYRVYAWIEYNYWGQGTQVTVSS”, for which the “polyreactivity (PSR sort gate)” value is “low polyreactivity”. For the sequence “QVQLVESGGGLVQAGGSLRLSCAASGITFYVNAMGWYRQAPGKERELVAAISNGGSTNYADSVKGRFTISRDNAKNTVYLQMNSLKPEDTAVYYCAARPSYGRYRYYYWGQGTQVTVSS”, the “polyreactivity (PSR sort gate)” value is “high polyreactivity”. For “QVQLVESGGGLVQAGGSLRLSCAASGITFYVYAMGGSRQAPGKERELVAAMTRSGGITSYADSVKGRFTISRDNAKNTGYLQMNSLKPEDTAVYYCAAERTNQHYHIQGVGYWGQGTQVTVSS”, the “polyreactivity (PSR sort gate)” value is “low polyreactivity”.

Consider “QVQLVESGGGLVQAGGSLRLSCAASGITFYWYAMGWYRQAPGKDRELVASITGNGGGTSYADSVKGRFTIARDNAKNTVYLQMNSLKPEDTAVYYCNTSVGGKEYDSWGQGTQVTVTS”, for which the “polyreactivity (PSR sort gate)” value is on record as “low polyreactivity”. The same measure for “QVQLVESGGGLVQAGGSLRLSCAASGITFYWYAMGWYRQAPGKERELVARISSTGGSTYYADSVKGRFTISRDNAKNTVYLQLNSLKPEDTAVYYCNAVGRLYLYGSWGQGTQVTLSS”: “high polyreactivity”; for “QVQLVESGGGLVQAGGSLRLSCAASGITFYWYTMGWYRQAPGKERELVADIDGDGGSTYYADSVKGRFTISRDNAKNTVYLQMNSLKPEDTAVYYCAAQVWPWGYDYWGQGTQVTVSS”: “high polyreactivity”; for “QVQLVESGGGLVQAGGSLRLSCAASGITFYYNAMGWYRQAPGKERELVAAISDGSSTNYADSVKGRFTISRDNAKNTVYLQMNSLKPEDTAVYYCNASWSFPVSGYESRSPGKLDYWGQGTQVTVYS”: “low polyreactivity”. In the case of “QVQLVESGGGLVQAGGSLRLSCAASGITFYYNAMGWYRQAPGKERELVATINDSDGSTYADSVKGRFTISRDNAKNTVYLQMNSLKPEDTAVYYCNAQTRAGYYFGYGYWGQGTQVTVSS” it was “low polyreactivity”; in that of “QVQLVESGGGLVQAGGSLRLSCAASGITFYYYAMGWYRQAPGKERELVAAISDNGSRTYYADSVKGRFTISRDNAKNTVYFQMNSLKPEDTAVYYCAADWFYTNVRYRYAYGGYYWGQGTQVTVSS”, “high polyreactivity”. In the case of “QVQLVESGGGLVQAGGSLRLSCAASGITFYYYAMGWYRQAPGKERELVAAISRSGGRTYYADSVKGRFTISRDNAKNTVYLQMNSLKPEDTAVYYCAAVRYQGGDSSIEYDYWGQGTQVTVSS”, the “polyreactivity (PSR sort gate)” value is listed as “high polyreactivity”.

Take “QVQLVESGGGLVQAGGSLRLSCAASGITFYYYAMGWYRQAPGKERELVAAISSRGGSTYYADSVKGRFTISRDNAKNTVYLQMNSLKPEDTAVYYCAALYDYWGQGTQVTVSS”: the “polyreactivity (PSR sort gate)” value was “high polyreactivity”. Regarding “QVQLVESGGGLVQAGGSLRLSCAASGITFYYYDMGWYRLAPGKERELVAAISWSGGRTYYADSVKGRFTISRDNEKNTVYLQMNSLKPEDTAVYYCASGYYVYHFVSLYGGDYWGQGTQVTVSS”, the “polyreactivity (PSR sort gate)” value is listed as “high polyreactivity”. “QVQLVESGGGLVQAGGSLRLSCAASGITGHNAMGWYIQAPGKERELVARISSGGRTNYADSVKGRFTISRDNAKNTVYLQMNSLKPEDTAVYYCAAGFRVGSFLRYNYWGQGTQVTVSS”: the “polyreactivity (PSR sort gate)” value is given as “high polyreactivity”. The same measure for “QVQLVESGGGLVQAGGSLRLSCAASGITIDVYGMGWYRQAPGKERELVASIRRRGGSTYYADSVKGRFTISRDNAKNTVYLQMNSLKPEDTAVYYCAAVPSDGHRIWSWDPYPEYDYWGQGTQVTVSS”: “low polyreactivity”; for “QVQLVESGGGLVQAGGSLRLSCAASGITIDYYAMGWYRQAPGKERELVAAISSVGNTNYADSVKGRFTISRDNAKNTVYLQMNSLKPEDTAVYYCATYAYYLYHVGTAYDYWGQGTQVTVSS”: “high polyreactivity”.

As to “QVQLVESGGGLVQAGGSLRLSCAASGITIGSNVMGWYRQAPGKERELVAAISQSGGRTYYADSVKGRFTISRDNAKNTVYLQMNSLKPEDTAVYYCAKRQRSFYGRPMGDYWGQGTQVTVSS”, the “polyreactivity (PSR sort gate)” value is recorded as “high polyreactivity”.

“QVQLVESGGGLVQAGGSLRLSCAASGITIKRYAMGWYRQAPGKEREFVATISQSGTSTYYADSVKGRFTISRDNAKTTVYLQMISLKPEDTAVYYCAADFIGYWYGYYSWGQGTQVTVSS”: the “polyreactivity (PSR sort gate)” value is “low polyreactivity”.

For “QVQLVESGGGLVQAGGSLRLSCAASGITIPVYMGWYRQAPGKERELVASISTIGGTTYYADSVKGRFTISRDNAKNTVYLQMNSLKPEDTAVYYCAADHPWSWYDYWGQGTQVTVSS”, the “polyreactivity (PSR sort gate)” value is reported as “low polyreactivity”.

For the sequence “QVQLVESGGGLVQAGGSLRLSCAASGITIVLYAMGWYRQAPGQERQLVAAINIDGNTNYADSVKGRFTISRDNAKNTVYLQMNSLKPEDTAVYYCAATFVPAQSRYTGSKYDYWGQGTQVTVSS”, the “polyreactivity (PSR sort gate)” value is “low polyreactivity”. In the case of “QVQLVESGGGLVQAGGSLRLSCAASGITIVLYTMGWYRQAPGKEREFVAGITRGGSTYYADSVKGRFTISRDNAKNTVYLQMNSLKPEDTSVYYCAARPRFLRASVEYDYWGQGTQVTVSS” it was “high polyreactivity”; in that of “QVQLVESGGGLVQAGGSLRLSCAASGITIVNYVMGWYRQAPGKERELVAAISIGGGTYYADSVKGRFTISRDNEKNTVYLQMNSLKPEDTAVYYCNASYGGLSFYIGVYVTGYDYWGQGTQVTVSS”, “low polyreactivity”. “QVQLVESGGGLVQAGGSLRLSCAASGITIYDYTMGWYRQAPGKERELVAVITSAGSTYYADSVKGRFTISRDNAKNTVYLQMNSLKPEDTAVYYCAAVIVSRGRKYRLDYWGQGTQVTVSS”: the “polyreactivity (PSR sort gate)” value is on record as “high polyreactivity”. In the case of “QVQLVESGGGLVQAGGSLRLSCAASGITIYGYAMGWYRQAPGKERELVAAITRSGGGTYYADSVKGRFTISRDNEKNTVYLQMISLKPEDTAVYYCAADSYSQYTMDYWGQGTQVTVSS”, the “polyreactivity (PSR sort gate)” value was “high polyreactivity”.

Turning to “QVQLVESGGGLVQAGGSLRLSCAASGITLAGYVMGWYRQAPGKERELVADISSSGDSTYYADSVKGRFTISRDNAKNTVYLQMISLKPEDTAVYYWAAEEIIPLIYKGYPFDYWGQGTQVTVSS”, the “polyreactivity (PSR sort gate)” value is recorded as “low polyreactivity”. With “QVQLVESGGGLVQAGGSLRLSCAASGITLGYYAMGWYRQAPGKERELVAAISYRGGNTYYADSVKGRFTISRDNAKNTVYLQRNSLKPEDTAVYYCNADLGYESGWWSKYDYWGQGTQVTVSS”, the “polyreactivity (PSR sort gate)” value is reported as “low polyreactivity”. As for “QVQLVESGGGLVQAGGSLRLSCAASGITLGYYVMGWYRQAPGKERELVAAISSSGGRTYYADSVKGRFTISRDNAKNTVYLQMNSLKPEDTAVYYCAADLGRGIYDYWGQGTQVTVSS”, the “polyreactivity (PSR sort gate)” value is “low polyreactivity”. Turning to “QVQLVESGGGLVQAGGSLRLSCAASGITLHHNAMGWYRQAPGKERELVAAITSNGGSTYYADSVKGRFTISRDNAKNTVYLQMNSLKPEDTAVYYCARDSKRLARYYYWGQGTQVTVSS”, the “polyreactivity (PSR sort gate)” value is recorded as “low polyreactivity”. On to “QVQLVESGGGLVQAGGSLRLSCAASGITLHYYAMGWYRQAPGKERELVATISRSGGSTYYADSVKGRFTISRDNAKNTVYLQMNSLKPEDTAVYYCAARSWGGYDSRGYWGQGTQVTVSS”, for which the “polyreactivity (PSR sort gate)” value is recorded as “high polyreactivity”. With “QVQLVESGGGLVQAGGSLRLSCAASGITLLYYAMGWYRQAPGKERELVAAISRRGGSTYYADSVKGRFTISRDNAKNTVYLQMNSLKPEDTAVYYCAAYSPYGGYHYLYDYWGQGTEVTVSS”, the “polyreactivity (PSR sort gate)” value was “high polyreactivity”. The same measure for “QVQLVESGGGLVQAGGSLRLSCAASGITLRGNAMGWYRQSPGKERELVAAIRTSGGRTYYADSVKGRFTISRDNAKNTVYLQMNSLIPEDTAVYYCAADYDSSYAYRTPYGYWGQGTQVTVSS”: “low polyreactivity”; for “QVQLVESGGGLVQAGGSLRLSCAASGITLRRNAMGWYRQAPGKERELVARISTTGGSTYYADSVKGRFTISRDNAKNTVYLQMNSLKPEDTAVYYCAADYVQYEFEYWGQGTQVTVSS”: “high polyreactivity”; for “QVQLVESGGGLVQAGGSLRLSCAASGITLSQNAMGWYRQAPGKERELVAAIDSGGVDTYYADSVKGRFTISRDNAKNTVYLQMNSLKPEDTAVYYCAVDYSYEYEYWGQGTQVTVSS”: “low polyreactivity”. With “QVQLVESGGGLVQAGGSLRLSCAASGITLTKYAMGWYRQAPGKERELVAAISKRGTNTYYADSVKGRFTISRDNAKNTVYLQMNSLKPEDTAVYYCNAPGHRQNGLGDYWGQGTQVTVSS”, the “polyreactivity (PSR sort gate)” value is reported as “high polyreactivity”.

On to “QVQLVESGGGLVQAGGSLRLSCAASGITLTKYGMGWYRQAPGKERELVAAISGSGGSTYYADSVKGRFTISRDNAKNTVYLQMNSLKPEDTAVYYCAARALYPRYYYWGQGTQVTVSS”, for which the “polyreactivity (PSR sort gate)” value was “high polyreactivity”. With “QVQLVESGGGLVQAGGSLRLSCAASGITLVGNAMGWYRQAPGKERELVADINWSDDSTYYADSVKGRFTISRDNAKNTVYLQMNSLKQEDTAVYYCAADVSWRLYNRSSEYDYWGQGTQVTVSS”, the “polyreactivity (PSR sort gate)” value is listed as “low polyreactivity”. With “QVQLVESGGGLVQAGGSLRLSCAASGITLVRYAMGWYRQAPGKERELVAAISSSGGSTYYADSVKGRFTISRHNAKNTVYLQMNSLKPEDTAVYYCNAYVHSRRVEFNYWGQGTQVTVSS”, the “polyreactivity (PSR sort gate)” value is on record as “high polyreactivity”. Turning to “QVQLVESGGGLVQAGGSLRLSCAASGITLVRYAMGWYRQAPGKERELVASIRGTGGSTYYADSVKGRFTISRDNAKNTVYLQMNSLKPEDTAVYYCAAGRYDYWGQGTQVTVSS”, the “polyreactivity (PSR sort gate)” value is “high polyreactivity”. Turning to “QVQLVESGGGLVQAGGSLRLSCAASGITLVRYAMGWYRQAPGKERELVASITSGASTNYADSVKGRFTISRDNAKNTVYLQMNSLKPEDTAVYYCAAGPPSGGWWGGWYDYWGQGTQVTVSS”, the “polyreactivity (PSR sort gate)” value is “high polyreactivity”.

The values are drawn from the nanobody polyreactivity screen of Harvey et al. (2022).
